Target: Human α-defensin 5 (human)
Experiment: SPR

Human α-defensin 5 (peptide)
molar ratio: 1 | stoichiometry N: 2

Reference: article PMC4332406
